Series [1] addresses engineered phosphite dehydrogenase PTDH (12x Opt PTDH) from Pseudomonas stutzeri, SEQ ID NO: 73 (Stutzerimonas stutzeri, UniProt O69054, A319E/A325V/C336D/D13E/E130K/E175A/E332N/I150F/I313L/L276Q/M26I/Q132R/Q137R/Q215L/R275Q/V315A/V71I). As to the kind of experiment: Michaelis-Menten kinetics of PTDH with sodium phosphite, reduction of NADP^+ at 340 nm. Conditions: sodium phosphite 10-1000 μM, NADP^+ 0.3 mM; 100 mM sodium phosphate pH 8.0, 25 °C. The series is classed as biochemical. How it is done:
All assays were carried out in triplicate at 25° C. in 100 mM sodium phosphate pH 8.0 in a final volume of 200 μL, unless otherwise specified. All stock solutions were prepared in 100 mM sodium phosphate pH 8.0, unless otherwise specified. A sodium phosphite stock solution was prepared by dissolving an appropriate amount of the solid in a volumetric flask with water.
The assay contained PTDH (0.05 mg mL^−1, 10 μL of a 1 mg mL^−1 stock) and NADP^+ (0.3 mM, 10 μL of a 5 mg mL^−1 stock). The assays were initiated with the addition of sodium phosphite in varying concentrations (10-1000 μM). See. FIG. 23.

Series [2] deals with T1, Corynebacterium glutamicum Cg10062 variant E114N, SEQ ID NO: 62 (Corynebacterium glutamicum, UniProt Q8NU77, E115N).
T1 sequence (Q8NU77 with tags, fused parts or gaps E115N): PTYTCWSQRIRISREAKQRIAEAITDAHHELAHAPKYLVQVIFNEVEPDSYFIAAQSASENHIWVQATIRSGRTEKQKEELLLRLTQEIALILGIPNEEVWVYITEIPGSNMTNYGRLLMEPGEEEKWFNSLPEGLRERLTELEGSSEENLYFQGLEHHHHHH
As to the kind of experiment: Michaelis-Menten kinetics of ACA hydration, coupled enzyme assay (MSAD/ADH, NADH oxidation at 340 nm).

A further series deals with Cg10062 (E114N). As to the kind of experiment: In vitro 3-HP synthesis from ACA with cofactor recycling (Cg10062 (E114N), YdfG, PTDH), HPLC and 1H NMR. The series is classed as biochemical, Corynebacterium glutamicum. Particulars: 100 mM ACA, 0.001-1 eq NADP+; hydration significantly faster at lower NADP+. From the text:
This in vitro pathway developed in this study utilizes the novel Cg10062 (E114N) hydratase-only mutant with two other enzymes, YdfG and PTDH (FIG. 1). YdfG is a NADP^+-dependent 3-hydroxy acid dehydrogenase from E. coli and has previously been used for the in vivo production of 3-HP via the β-alanine pathway. […] For our system to be applied practically, the cost of cofactor is an important consideration. NADPH is an expensive cofactor and in order for the pathway to be an efficient, cost-effective pathway, the use of sub-stoichiometric amounts of co-factor was carried out. […] The formation of 3-HP in these assays were also confirmed using ^1H NMR (FIG. 4A-C).
All stocks solutions were prepared in 100 mM sodium phosphate pH 8.0. Ethylene glycol (20% w/v) was added to all enzyme stock solutions. […] Each reaction was carried out in duplicate at 25° C. with constant slow mixing on a rocking platform. Reactions were initiated by the addition of ACA. Samples from each reaction were quenched at indicated timepoints for analysis by HPLC and ^1H NMR, as described below.
All samples (100 μL) were quenched and by addition of 5 μL of 18 M sulfuric acid. The final volume was adjusted to 500 μL using 0.01 N sulfuric acid. The samples were prepared for HPLC using Whatman Mini-UniPrep® G2 syringeless filters with a glass microfiber membrane. […]

Substrate in series [3]: O=CCC(=O)O
As to the kind of experiment: purified protein, by the assay type. Particulars: other: MSA generated in situ from ACA (10-2000 μM), NADPH 0.3 mM, 100 mM sodium phosphate pH 8.0, 25 °C. The format is biochemical, Escherichia coli. As for the experimental part: YdfG was characterized using the coupled enzyme assay show in FIG. 19. All assays were carried out in triplicate at 25° C. in 100 mM sodium phosphate pH 8.0, in a final volume of 200 μL, unless otherwise specified. All stock solutions prepared for the assays were prepared in 100 mM sodium phosphate pH 8.0. […] The assay contained a large excess of Cg10062 (E114N) (2 U), YdfG (0.005 mg mL^−1, 10 μL of a 0.1 mg mL^−1 stock) and NADPH (0.3 mM, 10 μL of a 5 mg mL^−1 stock).

Substrate in series [4]: O=CCC(=O)O
As to the kind of experiment: purified protein, by the assay type. The format is biochemical, Pseudomonas putida KT2440. Particulars: other: MSA generated in situ from ACA (50-10,000 μM), NADH 0.1 mg/mL, 100 mM potassium phosphate pH 8.0, 25 °C. How it is done:
MmsB was characterized using the coupled enzyme assay show in FIG. 28. All assays were carried out in triplicate at 25° C. in 100 mM potassium phosphate pH 8.0, at a final volume of 1 mL. All stock solutions used for the assays were prepared in 100 mM potassium phosphate pH 8.0. […] The assay contained Cg10062 (E114N) (0.8 U), MmsB (0.001 mg mL−1, 10 μL of a 0.1 mg mL−1 stock) and NADH (0.1 mg/mL, 20 μL of a 5 mg mL−1 stock). […] All other components and methods used for steady-state kinetics were identical to those described in Example 5.

A short description of series [5]: Coupled enzyme assay (ADH, with and without MSAD): hydratase and hydratase/decarboxylase activity and product profile of Cg10062 and variants. The format is biochemical. Conditions: for Rate in the absence of MSAD / Rate in the presence of MSAD: ACA 0.5 mM, pH 8, enzyme final concentration differs per variant (0.025-1.50 mg mL^−1), rates not directly comparable; for Product Ratio (%) acetaldehyde / Product Ratio (%) malonate semialdehyde: from Cg10062 activity in the presence and absence of MSAD; for Product Ratio (%) acetaldehyde: * from non-enzymatic decarboxylation of malonate semialdehyde; for Product Ratio (%) malonate semialdehyde: ACA substrate, pH 8.0, 25° C. How it is done: Steady-state kinetics were carried out using a Molecular Devices SpectraMax iD3 multi-mode microplate reader and Shimadzu UV2600 spectrophotometer. All assays were carried out in triplicate at 25° C. in 100 mM sodium phosphate pH 8.0 with a final volume of 200 μL, unless otherwise specified. The reduction of acetaldehyde by NADH-dependent alcohol dehydrogenase (ADH) was monitored by following the oxidation of NADH at 340 nm (ε=6220 M^−1 cm^−1).
All stock solutions, except ADH, required for the kinetics assays used for determining hydratase and hydratase/decarboxylase activities were prepared in 100 mM sodium phosphate pH 8.0. […] Stock solutions of ADH were prepared using deionized water, as recommended by the manufacturer. […] The final pH of each assay was 8.
The amount of enzyme used in each assay was varied in order to observe measurable activity. Thus, the rates obtained from this experiment were not used directly to compare the enzyme activity. These activities were only used for establishing the product profile of each enzyme. The ratios of MSA and acetaldehyde formed by each enzyme was determined by the coupled enzyme assay (FIG. 13), using the differences in rates in the presence and absence of MSAD (Table 10). […] All other components used for steady-state kinetics were identical to those used in the initial screening assays.

The conditions of series [6]: previously described variants, in words; cited from earlier work.
Substrate in series [7]: C#CC(=O)O
As to the kind of experiment: purified protein, by the assay type. Particulars: other: ACA, 100 mM sodium phosphate pH 8.0, 25 °C.

This is an account of results in patent publication US20240043883A1 (Board of Trustees of Michigan State University, priority 2021, published 2024).

Substitutions are numbered along the chain they refer to. Names may count otherwise.

Chain of engineered phosphite dehydrogenase PTDH (12x Opt PTDH) from Pseudomonas stutzeri, SEQ ID NO: 73 (O69054 other isoform, or with tags, fused parts or gaps with the stated changes): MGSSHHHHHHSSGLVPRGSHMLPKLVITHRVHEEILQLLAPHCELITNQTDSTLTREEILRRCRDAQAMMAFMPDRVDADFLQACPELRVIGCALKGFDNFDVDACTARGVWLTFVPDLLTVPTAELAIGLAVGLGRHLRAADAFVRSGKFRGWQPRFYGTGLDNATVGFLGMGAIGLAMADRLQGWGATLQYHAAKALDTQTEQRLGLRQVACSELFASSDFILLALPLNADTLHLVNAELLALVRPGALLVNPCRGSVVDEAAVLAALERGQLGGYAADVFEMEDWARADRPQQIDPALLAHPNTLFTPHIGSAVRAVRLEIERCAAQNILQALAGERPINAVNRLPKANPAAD

In the case of `O=[PH]([O-])[O-].[Na+].[Na+]` [sodium phosphite], in series [1], the Km was 778 ± 44 µM and the catalytic constant (kcat) amounted to 3.45 ± 0.06 s⁻¹.
Take `C#CC(=O)O` [ACA, acetylenecarboxylic acid]: in series [2] (ACA hydration, relative to E114D), the “kcat fold higher than Cg10062 (E114D)” value is given as 1.5 fold. Also, in series [2] (ACA hydration, relative to E114Q), the “kcat fold higher than Cg10062 (E114Q)” value was determined as 3 fold. Also, the “overall catalytic efficiency relative to wild-type” value in series [2] (ACA hydration, relative to wild-type Cg10062) is “comparable to that of the wild-type enzyme”. In series [2] (ACA, 100 mM sodium phosphate pH 8.0, 25 °C), the kcat was determined as 1.04 ± 0.07 s⁻¹.
Regarding NADP(H), in the series with Cg10062 (E114N), the “effect on Cg10062 (E114N) (hydration of ACA to MSA)” value is “inhibitory effect”.

B1: E. coli 3-hydroxy acid dehydrogenase YdfG, SEQ ID NO: 75 (Escherichia coli K-12) (protein)
chain: MIVLVTGATAGFGECITRRFIQQGHKVIATGRRQERLQELKDELGDNLYIAQLDVRNRAAIEEMLASLPAEWCNIDILVNNAGLALGMEPAHKASVEDWETMIDTNNKGLVYMTRAVLPGMVERNHGHIINIGSTAGSWPYAGGNVYGATKAFVRQFSLNLRTDLHGTAVRVTDIEPGLVGGTEFSNVRFKGDDGKAEKTYQNTVALTPEDVSEAVWWVSTLPAHVNINTLEMMPVTQSYAGLNVHRQENLYFQGLEHHHHHH
Take B1: in series [3], the Michaelis-Menten constant (Km) came out at 137 ± 18 µM, the catalytic constant (kcat) was found to be 6.62 ± 0.43 s⁻¹ and the kcat/Km came out at 48300 ± 7100 M⁻¹ s⁻¹.

B2: P. putida KT2440 3-hydroxyisobutyrate dehydrogenase MmsB, SEQ ID NO: 76 (Pseudomonas putida KT2440) (protein)
chain: MRIAFIGLGNMGAPMARNLIKAGHQLNLFDLNKAVLAELAELGGQISPSPKDAAANSELVITMLPAAAHVRSVYLNEDGVLAGIRPGTPTVDCSTIDPQTARDVSKAAAAKGVDMGDAPVSGGTGGAAAGTLTFMVGASTELFASLKPVLEQMGRNIVHCGEVGTGQIAKICNNLLLGISMIGVSEAMALGNALGIDTKVLAGIINSSTGRCWSSDTYNPWPGIIETAPASRGYTGGFGAELMLKDLGLATEAARQAHQPVILGAVAQQLYQAMSLRGEGGKDFSAIVEGYRKKDENLYFQGLEHHHHHH
As for B2, in series [4], the Km was determined as 2220 ± 192 µM, the kcat is 101 ± 5 s⁻¹ and the kcat/Km came to 45500 ± 5900 M⁻¹ s⁻¹.

B3: Cg10062(E114Q): Previously described Cg10062 variant with E114Q mutation, SEQ ID NO: 22 and 60 (protein)
chain: PTYTCWSQRIRISREAKQRIAEAITDAHHELAHAPKYLVQVIFNEVEPDSYFIAAQSASENHIWVQATIRSGRTEKQKEELLLRLTQEIALILGIPNEEVWVYITEIPGSNMTQYGRLLMEPGEEEKWFNSLPEGLRERLTELEGSSE
modifications: Cg10062(E114Q) from Corynebacterium glutamicum codon-optimized for Escherichia coli
B3: in series [5], the “Rate in the absence of MSAD” value was “no activity”, the “Rate in the presence of MSAD” value turned out to be 102 µM/min, the “Product Ratio (%) acetaldehyde” value is on record as <1* % and the “Product Ratio (%) malonate semialdehyde” value was more than 99%. Also, in series [6], the “activity relative to the Cg10062” value is given as “significantly lower activity” and the “product of ACA hydration” value is listed as “MSA exclusively”.

B4: Cg10062(E114D): Previously described Cg10062 variant with E114D mutation, SEQ ID NO: 23 and 61 (protein)
chain: B3 chain with Q114D
modifications: Cg10062(E114D) from Corynebacterium glutamicum codon-optimized for Escherichia coli
As for B4, in series [5], the “Rate in the absence of MSAD” value is “no activity”, the “Rate in the presence of MSAD” value worked out at 90 µM/min, the “Product Ratio (%) acetaldehyde” value is <1* % and the “Product Ratio (%) malonate semialdehyde” value was more than 99%. For the same molecule, in series [6], the “activity relative to the Cg10062” value is recorded as “significantly lower activity” and the “product of ACA hydration” value is recorded as “MSA exclusively”.

B5: Corynebacterium glutamicum Cg10062 variant E114N, SEQ ID NO: 62 (Corynebacterium glutamicum ATCC 13032; E115N) (protein)
chain: T1 sequence (Q8NU77 with tags, fused parts or gaps E115N)
For the molecule B5, the Michaelis-Menten constant (Km) in series [7] came to 45 ± 1 µM.

B6: Corynebacterium glutamicum Cg10062, wild-type, SEQ ID NO: 59 (Corynebacterium glutamicum ATCC 13032) (protein)
chain: T1 sequence (Q8NU77 with tags, fused parts or gaps E115N) with N114E
B6: in series [7], the Km was found to be 66 ± 4 µM, the catalytic constant (kcat) is 8.21 s⁻¹ and the kcat/Km came out at 124000 M⁻¹ s⁻¹.
